Values belong to the binder of their own block, whether it stands above or below them.
Experiments:
[1] = biological target: T1, HIR extracellular domain (ECD) (human, UniProt P06213 28-956, limits assumed); assay: ELISA, HIR ECD plated
T1 construct: extracellular domain; also called HIR ECD; IR ECD
Method: The extracellular domain (ECD) of the HIR was purified by lectin affinity chromatography from serum free medium conditioned by CHO cells that were permanently transfected with the HIR ECD. The HIR ECD was plated in ELISA wells to bind the chimeric HIRMAb without IDUA fused, and the CHO-derived HIRMAb-IDUA fusion protein. […] The binding constants shown in FIG. 18 were determined by non-linear regression analysis of the binding isotherms.

[2] = biological target: T1, HIR extracellular domain (ECD); assay: ELISA, HIR ECD plated, biotinylated goat anti-human IgG detection
Method: The affinity of the fusion protein for the HIR extracellular domain (ECD) was determined with an ELISA. CHO cells permanently transfected with the HIR ECD were grown in serum free media (SFM), and the HIR ECD was purified with a wheat germ agglutinin affinity column, as previously described in Coloma et al. (2000) Pharm Res, 17:266-274. The HIR ECD was plated on Nunc-Maxisorb 96 well dishes and the binding of the HIR Ab, or the HIR Ab-IDUA fusion protein, to the HIR ECD was detected with a biotinylated goat anti-human IgG (H+L) secondary antibody, followed by avidin and biotinylated peroxidase (Vector Labs, Burlingame, Calif.). The concentration of either HIR Ab or HIR Ab-IDUA fusion protein that gave 50% maximal binding was determined with a non-linear regression analysis.

EC50 [1]: 0.75 nM | EC50 [2]: 0.61 nM
B1: chimeric HIR Ab (human-mouse chimeric antibody to the human insulin receptor) (antibody, human IgG1, kappa)
heavy: not shown
light: DIQMTQSPSSLSASLGERVSLTCRASQDIGGNLYWLQQGPDGTIKRLIYATSSLDSGVPKRFSGSRSGSDYSLTISSLESEDFVDYYCLQYSSSPWTFGGGTKMEIKRTVAAPSVFIFPPSDEQLKSGTASVVCLLNNFYPREAKVQWKVDNALQSGNSQESVTEQDSKDSTYSLSSTLTLSKADYEKHKVYACEVTHQGLSSPVTKSFNRGEC
notes: Human IgG1 heavy chain constant region and human kappa light chain constant region; also called chimeric HIRMAb; HIRMAb

EC50 [2]: 0.93 nM
B2: HIR Ab-IDUA fusion protein (COS cell derived; HIR Ab-HC-IDUA fusion/HIR Ab-LC antibody) (antibody, human IgG1, kappa)
heavy: not shown
light: B1 light
notes: Bivalent antibody-enzyme fusion; It was made by dual transfection of COS cells with pHIR Ab-LC and pCD-HC-IDUA; also called HIR Ab-IDUA fusion antibody

— US20150299328A1 (ARMAGEN TECHNOLOGIES, published 2015)
